The values below come from US20130230533A1 (Regeneron, published 2013).

Experiment [1] concerns the target T1, biotinylated dimeric human CD48 protein expressed as a fusion with mouse IgG2a Fc (human, biotinylated).
T1 construct: also called bio-hCD48-mFc; Dimeric human CD48-mFc
T1 chain: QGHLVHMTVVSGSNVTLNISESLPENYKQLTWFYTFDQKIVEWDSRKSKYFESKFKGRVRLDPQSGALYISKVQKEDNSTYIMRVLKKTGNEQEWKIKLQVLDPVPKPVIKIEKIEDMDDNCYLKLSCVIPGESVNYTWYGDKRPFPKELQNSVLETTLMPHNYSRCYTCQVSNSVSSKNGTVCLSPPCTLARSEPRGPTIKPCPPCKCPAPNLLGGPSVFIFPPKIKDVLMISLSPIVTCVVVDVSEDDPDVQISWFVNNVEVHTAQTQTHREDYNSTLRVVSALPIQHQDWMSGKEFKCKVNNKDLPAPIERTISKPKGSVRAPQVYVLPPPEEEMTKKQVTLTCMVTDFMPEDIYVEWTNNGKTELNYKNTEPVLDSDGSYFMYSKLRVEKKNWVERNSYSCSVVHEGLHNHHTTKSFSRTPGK
The experiment is described as follows: competition ELISA; blocks bio-hCD48-mFc binding to coated h2B4-mFc. As for the experimental part: (§1) The ability of human anti-CD48 monoclonal antibodies to block human CD48 and monkey CD48 binding to the human cognate ligand, human 2B4, was measured using a competition sandwich ELISA (Table 8). Constant amounts of biotinylated dimeric human CD48 protein expressed as a fusion with mouse IgG2a Fc (“bio-hCD48-mFc” [SEQ ID NO: 387]) or monomeric monkey CD48 expressed with a tag consisting of 2 myc and one 6-His epitopes (“mfCD48-mmH” [SEQ ID NO: 386]) were separately titrated with varying amounts of antibodies. These antibody-protein complexes were incubated (1 hr, 25° C.) before being transferred to microtiter plates coated with a dimeric construct expressing the human 2B4 receptor fused to a either human IgG1 (h2B4-hFc [R&D Systems, Inc., Minneapolis, Minn., Cat. No. 1039-2B]) or mouse IgG2a Fc (h2B4-mFc [SEQ ID NO: 389). After a 1 hr at 25° C. the wells were washed and bound human CD48 was detected with streptavidin conjugated with horse-radish peroxidase (HRP), and monkey CD48 was detected with an HRP conjugated anti-myc polyclonal antibody. The ELISA was developed with a TMB solution to produce a colorimetric reaction and quenched with sulfuric acid before reading absorbance at 450 nm on a Victor X5 plate reader. Sigmoidal dose response curves were fit to the data using Prism™ software. […] (Tables 8 and 9, NB=no binding observed)
In general terms: ELISA stands for enzyme-linked immunosorbent assay.

For experiment [2], the target named is T2, human CD48 (on primary human peripheral blood mononuclear cells) (human, UniProt P09326 27-220).
T2 sequence: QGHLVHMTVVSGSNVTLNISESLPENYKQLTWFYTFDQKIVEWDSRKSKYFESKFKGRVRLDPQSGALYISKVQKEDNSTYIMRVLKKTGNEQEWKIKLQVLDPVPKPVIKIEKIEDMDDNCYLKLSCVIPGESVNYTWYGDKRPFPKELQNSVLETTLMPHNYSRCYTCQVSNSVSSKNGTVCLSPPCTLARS
The experiment is described as follows: cell-based or functional assay.

Experiment [3] addresses T1, biotinylated dimeric human CD48 protein …. The experiment is described as follows: competition ELISA; blocks bio-hCD48-mFc binding to coated h2B4-hFc. The protocol:
as §1

The target in experiment [4] is T2, human CD48 (on primary human peripheral …). The experiment is described as follows: cell-based or functional assay. This is another data set of the same source.
The target in experiment [5] is T3, monomeric monkey CD48 expressed with a tag consisting of 2 myc and one 6-His epitopes (monkey).
T3 construct: also called mfCD48-mmH; Monomeric monkey CD48-mmH
T3 chain: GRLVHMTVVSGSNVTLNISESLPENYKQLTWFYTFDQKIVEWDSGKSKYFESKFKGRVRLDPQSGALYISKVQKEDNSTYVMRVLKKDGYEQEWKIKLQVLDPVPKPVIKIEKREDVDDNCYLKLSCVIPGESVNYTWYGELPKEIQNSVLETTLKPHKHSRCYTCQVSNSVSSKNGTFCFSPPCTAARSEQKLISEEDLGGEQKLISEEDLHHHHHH
The experiment is described as follows: competition ELISA; blocks mfCD48-mmH binding to coated h2B4-hFc. As for the experimental part:
as §1

The target in experiment [6] is T3, monomeric monkey CD48 expressed with a …. The experiment is described as follows: competition ELISA; blocks mfCD48-mmH binding to coated h2B4-mFc. As for the experimental part:
as §1

Where a chain is given by its changes, count along the chain named. Names may count otherwise.

B1: H2M1763N (antibody, mouse IgG2, V domains shown)
VH: QIQLVQSGAEMKRPGTSVKVSCKASGYTFTSYGINWVRQAPGQGLEWMGWISAYNGDTNYAQKLQGRVTMTTDTSTTTAYMEVRSLRSDDTAVYYCARFLTGTKDYYYGMDVWGQGTTVTVSS
VL: DIQMTQSPSSLSASVGDRVTITCQASQDISNFLNWYQQKPGKAPDLLINDASILETGVPSRFSGSGSGTDFTLTINNLQPEDIATYYCQQYDNLPLTFGGGTKVEIK
notes: Human variable domains, mouse IgG2 Fc (H2M)
The term IC50 denotes the point on the concentration scale where inhibition reaches its midpoint. B1 returned an IC50 in experiment [1] of 0.0055 nM. In experiment [2], the “Inhibition of IFN-gamma Release IC50; Donor 6” value (“Inhibition … Donor 6” for short) was found to be 2.6e-11 Molar and the “Inhibition of IFN-gamma Release IC50; Donor 7” value (shortened to “Inhibition … Donor 7”) was found to be 1.8e-11 Molar. This molecule gave an IC50 in experiment [3] of 0.0088 nM. In experiment [4], the “Inhibition of IFN-gamma Release IC50; Donor 1” value (from here on “Inhibition … Donor 1”) came out at 4.9e-11 Molar, the “Inhibition of IFN-gamma Release IC50; Donor 2” value (shortened to “Inhibition … Donor 2”) was found to be 3.4e-11 Molar, the “Inhibition of IFN-gamma Release IC50; Donor 3” value (“Inhibition … Donor 3” below) stood at 1.3e-10 Molar and the “Inhibition of IFN-gamma Release IC50; Donor 4” value (“Inhibition … Donor 4” below) was found to be 7.5e-11 Molar. Besides, in experiment [4], the “Inhibition of IFN-gamma Release IC50; Donor 5” value (from here on “Inhibition … Donor 5”) turned out to be 1.9e-11 Molar. Also, the IC50 in experiment [5] worked out at 0.013 nM. Also, in experiment [6], the IC50 was found to be 0.0023 nM.

B2: H2M1712N (antibody, mouse IgG2, V domains shown)
VH: B1 VH with T30S, Y106L
VL: B1 VL with N77S
notes: as for B1
In turn, B2 gave an IC50 in experiment [3] of 0.014 nM. In addition, in experiment [4], the “Inhibition … Donor 1” value was 2e-11 Molar, the “Inhibition … Donor 2” value turned out to be 2.8e-11 Molar, the “Inhibition … Donor 3” value amounted to 7.2e-11 Molar and the “Inhibition … Donor 4” value worked out at 4.8e-11 Molar. The “Inhibition … Donor 5” value in experiment [4] amounted to 1.1e-11 Molar. The IC50 in experiment [5] was 0.017 nM.

B3: H2M1713N (antibody, mouse IgG2, V domains shown)
VH: QVQLVQSGAEVKKPGASVKVSCKASGHTFTNYYIHWVRQAPGQGLEWMGITNPNDGNTRYAQKFQGRISMTWDTSTSTVFMELSSLKSEDTAVYYCAGLRYWFFDLWGRGTPVTVSS
VL: DIQMTQSPSSVSASVGDRVTITCRASQDISSWLAWYQQKPGKAPNLLIFAASSLQSGVPSRFSGSGSGTDFTLTISSLQPEDFGTYYCQQTDNFPRTFGQGTKVEIN
notes: as for B1
In the case of B3, in experiment [1], the IC50 was found to be 0.022 nM. In addition, in experiment [2], the “Inhibition … Donor 6” value worked out at 2.2e-11 Molar and the “Inhibition … Donor 7” value worked out at 1e-10 Molar. In addition, the IC50 in experiment [3] stood at 0.026 nM. Moreover, in experiment [4], the “Inhibition … Donor 1” value is 2.1e-11 Molar, the “Inhibition … Donor 2” value was determined as 7.6e-11 Molar, the “Inhibition … Donor 4” value stood at 1.1e-10 Molar and the “Inhibition … Donor 5” value came out at 1.1e-11 Molar. The same molecule displayed an IC50 in experiment [5] of 0.024 nM. The same molecule displayed an IC50 in experiment [6] of 0.0025 nM.

B4: H2M1710N (antibody, mouse IgG2, V domains shown)
VH: QVQLVQSGADMKKPGASVRVSCKASGYTFTDYFIHWVRQAPGQGPEWMGWINPDSGATNYAQQFQGRVTMTRDTSISATYMEMSRLRSDDTAVFYCARDKDGSGWYLDDWGQGTLVTVSS
VL: EIVLTQSPATLSLSPGERATLSCRASQSVNIYLAWYQQKPGQAPRLLIYDASNRASGIPARFSGSGSGTDFTLTISSLEPEDFAVYYCQQRSNWPPSITFGQGTRLEIK
notes: as for B1
B4 registered an IC50 in experiment [1] of 0.49 nM. Besides, in experiment [2], the “Inhibition … Donor 6” value worked out at 5e-11 Molar and the “Inhibition … Donor 7” value stood at 1.4e-10 Molar. For the same molecule, in experiment [3], the IC50 amounted to 0.58 nM. Moreover, in experiment [4], the “Inhibition … Donor 1” value is 7.8e-10 Molar, the “Inhibition … Donor 2” value came to 1.9e-10 Molar, the “Inhibition … Donor 3” value turned out to be 1.1e-06 Molar and the “Inhibition … Donor 4” value came to 1.5e-09 Molar. For the same molecule, the “Inhibition … Donor 5” value in experiment [4] amounted to 2.7e-10 Molar. The molecule further registered an IC50 in experiment [5] of 0.37 nM. This molecule showed an IC50 in experiment [6] of 0.26 nM.

B5: H2M1811N (antibody, mouse IgG2, V domains shown)
VH: QVQLVQSGAEAREPGASVRVSCKASGYTFTDYFIHWVRQAPGQGLEWMGWINPNSGATNFAQKFQGRVTMTRDTSLITAYMDLSRLKSDDAAVFYCARDVDGSGWYLDFWGQGTLVTVSS
VL: B4 VL with N30S, S56T, S77R, N93D
notes: as for B1
As for B5, in experiment [3], the IC50 stood at 0.49 nM. In experiment [4], the “Inhibition … Donor 1” value was found to be 9.1e-11 Molar, the “Inhibition … Donor 2” value was 4.6e-10 Molar, the “Inhibition … Donor 3” value stood at 8.3e-11 Molar and the “Inhibition … Donor 4” value was found to be 4.8e-10 Molar. Moreover, the “Inhibition … Donor 5” value in experiment [4] came out at 9.4e-11 Molar. In experiment [5], this molecule came in with an IC50 of 0.22 nM.

B6: H2M1764N (antibody, mouse IgG2, V domains shown)
VH: QVQLVESGGGVVQPGRSLRLSCAASGFTFSDYGMHWVRQAPGKGLEWVAVIWNDGSNKNYADSVKGRFSISSDSSKNTLYLHMNSLRAEDTAVYYCARSLYSTSPWYFDLWGRGTLVTVSS
VL: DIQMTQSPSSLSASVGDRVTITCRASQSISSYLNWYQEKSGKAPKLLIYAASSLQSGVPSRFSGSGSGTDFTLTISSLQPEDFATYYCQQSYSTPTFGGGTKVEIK
notes: as for B1
As to B6, in experiment [1], the IC50 was determined as 0.029 nM. Moreover, in experiment [2], the “Inhibition … Donor 6” value was found to be 1e-10 Molar. The IC50 in experiment [3] was determined as 0.064 nM. Besides, in experiment [4], the “Inhibition … Donor 1” value came to 2.7e-11 Molar, the “Inhibition … Donor 2” value is 1.1e-10 Molar, the “Inhibition … Donor 3” value was determined as 1.9e-10 Molar and the “Inhibition … Donor 4” value was 9.5e-11 Molar. For the same molecule, in experiment [4], the “Inhibition … Donor 5” value was found to be 1.9e-11 Molar. In experiment [5], this molecule displayed an IC50 of 0.24 nM. Besides, the IC50 in experiment [6] was 0.062 nM.

B7: H2M1707N (antibody, V domains shown)
VH: EGQLLESGGGLAQPGGSLRLSCAASGITFGRYAMSWVRQAPGKGLEWVSLISGSGGSTYHADSVKGRFTISRDNSKNTLYLQMNSLRAEDTAVYYCAIYNNYNWFDPWGQGTLVTVSS
VL: EIVLTQSPGTLSLSPGERATLSCRASQSVSSNYLAWYQQKPGQAPRLLIYDASSRATDIPDRFSGSGSGTDFTLTISRLEPEDFAVYYCQQYGSSPRTFGQGTKVEIK
notes: as for B1
Take B7: in experiment [1], the IC50 came to 0.0086 nM. For the same molecule, in experiment [2], the “Inhibition … Donor 6” value was 9.3e-12 Molar and the “Inhibition … Donor 7” value stood at 1.9e-11 Molar. The molecule further had an IC50 in experiment [3] of 0.022 nM. Moreover, in experiment [4], the “Inhibition … Donor 1” value was 4.9e-11 Molar, the “Inhibition … Donor 2” value stood at 3e-11 Molar, the “Inhibition … Donor 3” value was 1.1e-10 Molar and the “Inhibition … Donor 4” value stood at 1.7e-10 Molar. Besides, the “Inhibition … Donor 5” value in experiment [4] is 1.5e-11 Molar. In addition, the half-maximal inhibitory concentration (IC50) in experiment [5] is 0.023 nM. For the same molecule, the IC50 in experiment [6] came to 0.0049 nM.
